The results in this text go back to PMC9733292 (Journal of Translational Medicine, 2022).

For the assay, the target named is T1, CD3 receptor (CD3ε subunit of the T cell receptor complex) (Homo sapiens, UniProt P07766).
T1 construct: also called CD3 antigen; CD3 receptors
Put plainly: flow cytometry on cells. The conditions noted are these: one partner purified. (Flow cytometry measures light scatter and fluorescence of single cells or particles in a stream.)

T1 sequence (P07766 23-207, one chain of several): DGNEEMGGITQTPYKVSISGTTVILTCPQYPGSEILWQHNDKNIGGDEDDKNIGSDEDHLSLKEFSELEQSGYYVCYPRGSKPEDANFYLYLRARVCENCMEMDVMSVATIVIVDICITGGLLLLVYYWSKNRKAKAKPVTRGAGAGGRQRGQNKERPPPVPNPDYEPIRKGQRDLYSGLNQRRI

B1: scFv OKT3 wild-type (scFv, V domains shown)
VH: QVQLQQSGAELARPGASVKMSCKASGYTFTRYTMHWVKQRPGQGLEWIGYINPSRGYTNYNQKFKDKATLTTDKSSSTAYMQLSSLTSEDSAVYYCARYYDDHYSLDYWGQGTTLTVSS
VL: QIVLTQSPAIMSASPGEKVTMTCSASSSVSYMNWYQQKSGTSPKRWIYDTSKLASGVPAHFRGSGSGTSYSLTISGMEAEDAATYYCQQWSSNPFTFGSGTKLEIN
notes: also called OKT3 single chain variable fragment
With B1, the binding result was “binds”.

B2: scFv OKT3 E129AzK (scFv, V domains shown)
VH: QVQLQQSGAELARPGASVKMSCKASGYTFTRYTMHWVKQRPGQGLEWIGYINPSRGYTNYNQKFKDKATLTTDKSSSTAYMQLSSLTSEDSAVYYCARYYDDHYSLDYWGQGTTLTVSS
VL: QIVLTQSPAIMSASPGEKVTMTCSASSSVSYMNWYQQKSGTSPKRWIYDTSKLASGVPAHFRGSGSGTSYSLTISGMEAEDAATYYCQQWSSNPFTFGSGTKLEIN
notes: also called scFv OKT3 E129AzK variant
With B2, the binding result was “binds”.
